Experimental data reported in patent publication US20080160574A1 (KOREA ADVANCED INSTITUTE OF SCIENCE AND TECHNOLOGY KAIST, published 2008).

What was measured:
[1] = molecular target: T1, soluble Tie2-Fc (fusion of the ectodomain of Tie-2 receptor and the Fc domain of human IgG1, R&D Inc) (human, UniProt Q02763 23-748); test: Biacore, Tie2-Fc immobilized on CM5 chip
T1 construct: Bought (R&D Inc) for the Biacore assay; human Tie2 would be UniProt Q02763; also called sTie2-Fc; T2; not shown: Fc domain of human IgG1 and any linker
T1 sequence (Q02763 23-748 limits assumed): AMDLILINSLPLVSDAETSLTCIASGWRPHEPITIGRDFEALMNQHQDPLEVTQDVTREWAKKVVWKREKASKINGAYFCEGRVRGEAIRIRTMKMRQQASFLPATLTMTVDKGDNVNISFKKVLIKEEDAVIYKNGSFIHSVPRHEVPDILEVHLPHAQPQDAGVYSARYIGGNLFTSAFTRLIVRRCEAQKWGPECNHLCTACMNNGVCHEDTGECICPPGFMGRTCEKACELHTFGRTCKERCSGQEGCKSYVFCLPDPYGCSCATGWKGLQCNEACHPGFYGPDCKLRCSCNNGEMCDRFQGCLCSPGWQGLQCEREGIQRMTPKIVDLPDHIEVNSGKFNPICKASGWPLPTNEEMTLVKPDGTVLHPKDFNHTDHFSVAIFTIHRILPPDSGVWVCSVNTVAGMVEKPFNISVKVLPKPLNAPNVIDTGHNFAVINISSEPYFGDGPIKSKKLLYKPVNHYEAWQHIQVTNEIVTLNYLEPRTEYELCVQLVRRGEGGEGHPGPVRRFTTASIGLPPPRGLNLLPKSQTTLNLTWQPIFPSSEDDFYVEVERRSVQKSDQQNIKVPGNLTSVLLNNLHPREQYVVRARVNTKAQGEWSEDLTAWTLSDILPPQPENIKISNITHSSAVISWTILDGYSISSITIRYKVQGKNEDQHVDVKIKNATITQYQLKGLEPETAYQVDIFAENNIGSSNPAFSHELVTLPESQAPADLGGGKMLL
Description: (§1) FIGS. 10A-10D show in vitro binding assay between recombinant native Ang1, GCN4-Ang1/FD, CMP-Ang1/FD, or COMP-Ang1/FD and immobilized soluble Tie2-Fc using Biacore assay. Each recombinant protein was passed over a Biacore sensor chip that had extracellular domain of Tie2-Fc and Fc protein covalently coupled to it, followed by dissembling in absence of the recombinant proteins. Concentrations of the recombinant proteins are shown in each panel. Specificity of binding was assessed by subtracting Fc protein binding value from Tie2-Fc binding value during the measurement. Binding of the sensor chip is provided in resonance units (RUs).
(§2) Alternatively, to determine whether the COS-7 cell-derived recombinant proteins of native Ang1, GCN4/CC-Ang1/FD, CMP/CC-Ang1/FD and COMP/CC-Ang1/FD could bind to Tie-2 receptor, standard Biacore analysis was performed by BIA2000 (BIAcore, Inc.). Briefly, 600 ng of Tie-2-Fc receptor protein (R&D Inc), which is a fusion protein composed of the ectodomain of Tie-2 receptor and Fc domain of human IgG1, was immobilized on a Biacore chip (Sensor Chip CM5). As a control, 600 ng of Fc protein, which had only the Fc domain of human IgG1, was also immobilized on the same chip. The binding affinity was obtained by subtracting the response value using Fc protein from the values obtained using the Tie-2-Fc protein.

[2] = molecular target: T1, soluble Tie2-Fc (fusion of the …); test: protein-A pull-down with sTie2-Fc, anti-FLAG Western blot
Description: Twenty nanograms of each protein was incubated with 100 ng of sTie1-Fc or sTie2-Fc for […], and then, protein-A conjugated agarose beads were added. The precipitate was separated by 10% SDS-PAGE, and electro-blotted on to nitrocellulose membranes. The nitrocellulose membranes were Western blotted with anti-FLAG M1 antibody, washed, and incubated with horseradish peroxidase-conjugated secondary antibody. Signals were visualized by chemiluminescent detection according to the manufacturer's protocol (Amersham Pharmacia Biotech) and chemiluminescence scanner (LAS-1000, Fuji Film, Tokyo). CB, control buffer; PC, positive control of same amount of each recombinant protein without binding.
Twenty nanograms of each recombinant chimeric-Ang1 protein and 100 ng of soluble Tie1-Fc or soluble Tie2-Fc were incubated in 500 μl Tris-buffer solution (50 mM Tris, 100 mM NaCl, pH 7.4) containing 0.02% TritonX-100 at 4° C. for 2 hr. Then, 20 μl of protein-A agarose beads (Oncogene) was added and incubated for another 1 hr at 4° C. The protein-A conjugated samples were washed twice with 1 ml of Tris-buffer containing 0.02% TritonX-100. The samples were eluted with sample buffer, and heat-denatured. The samples were further separated by 10% SDS-PAGE, and electro-blotted on to nitrocellulose membranes, and Western blotted with anti-FLAG M1 antibody to detect the bound recombinant chimeric-Ang1, and further washed and incubated with horseradish peroxidase-conjugated secondary antibody. Signal was visualized by chemiluminescent detection according to the manufacturer's protocol (Amersham Pharmacia Biotech) using chemiluminescence scanner (LAS-1000, Fuji Film, Tokyo). Approximately 75%, 20%, 95% or 100% of native Ang1, GCN4-Ang1/FD, CMP-Ang1/FD, and COMP-Ang1/FD, respectively, bound to sTie2-Fc. In contrast, none of them bound to sTie1-Fc.

[3] = molecular target: T1, soluble Tie2-Fc (fusion of the …); test: Biacore, Tie2-Fc immobilized on CM5 chip, Fc reference subtracted
Description: as §1, §2

[4] = molecular target: Tie2 receptor on human umbilical vein endothelial cells (HUVECs) (human, UniProt Q02763 23-1124); test: cell-based or functional assay
Chain of Tie2 receptor on human umbilical vein endothelial cells (HUVECs) (Q02763 23-1124): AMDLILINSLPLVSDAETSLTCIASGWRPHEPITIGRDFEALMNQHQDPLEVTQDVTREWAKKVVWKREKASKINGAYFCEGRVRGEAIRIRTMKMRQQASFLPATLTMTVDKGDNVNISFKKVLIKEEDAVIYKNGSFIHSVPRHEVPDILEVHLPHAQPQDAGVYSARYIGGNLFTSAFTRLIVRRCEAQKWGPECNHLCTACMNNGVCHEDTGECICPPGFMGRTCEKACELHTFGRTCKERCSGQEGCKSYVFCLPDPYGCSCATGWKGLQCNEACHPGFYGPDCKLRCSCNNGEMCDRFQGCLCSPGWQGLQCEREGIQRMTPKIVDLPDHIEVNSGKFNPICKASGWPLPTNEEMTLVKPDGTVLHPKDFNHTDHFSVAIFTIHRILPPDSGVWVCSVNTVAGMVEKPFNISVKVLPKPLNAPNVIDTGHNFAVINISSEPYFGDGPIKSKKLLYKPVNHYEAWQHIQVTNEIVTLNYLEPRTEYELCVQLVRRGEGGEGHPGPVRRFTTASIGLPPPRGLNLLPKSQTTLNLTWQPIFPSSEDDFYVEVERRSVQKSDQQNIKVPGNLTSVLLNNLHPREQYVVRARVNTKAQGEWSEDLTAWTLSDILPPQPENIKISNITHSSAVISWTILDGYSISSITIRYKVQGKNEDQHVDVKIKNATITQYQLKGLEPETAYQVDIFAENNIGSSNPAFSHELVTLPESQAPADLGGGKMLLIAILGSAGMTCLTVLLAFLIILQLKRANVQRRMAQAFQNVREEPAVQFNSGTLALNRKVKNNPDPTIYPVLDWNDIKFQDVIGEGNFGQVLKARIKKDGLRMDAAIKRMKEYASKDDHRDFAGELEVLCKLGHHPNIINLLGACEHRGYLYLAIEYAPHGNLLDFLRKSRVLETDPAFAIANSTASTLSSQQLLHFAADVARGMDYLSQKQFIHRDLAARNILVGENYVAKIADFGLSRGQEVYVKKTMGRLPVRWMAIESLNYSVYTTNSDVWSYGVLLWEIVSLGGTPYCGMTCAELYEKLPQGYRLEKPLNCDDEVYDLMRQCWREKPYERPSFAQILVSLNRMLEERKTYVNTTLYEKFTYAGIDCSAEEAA

[5] = molecular target: T1, soluble Tie2-Fc (fusion of the …); test: binding assay with soluble Tie2 (details not given)

B1: COMP/CC-Ang1/FD (coiled-coil domain of COMP - fibrinogen domain of Ang1) (ligand)
chain: DYKDDDDKGILDLAPQMLRELQETNAALQDVRELLRQQVKEITFLKNTVMECDACGGSLVNLCTKEGVLLKGGKREEEKPFRDCADVYQAGFNKSGIYTIYINNMPEPKKVFCNMDVNGGGWTVIQHREDGSLDFQRGWKEYKMGFGNPSGEYWLGNEFIFAIYSQRQYMLRIELMDWEGNRAYSQYDRFHIGNEKQNYRLYLKGHTGTAGKQSSLILHGADFSTKDADNDNCMCKCALMLTGGWWFDACGPSNLNGMFYTAGQNHGKLNGIKWHYFKGPSYSLRSTTMMIRPLDF
notes: The end, 312, is worked out from the stated lengths: 16 signal + 8 FLAG + 3 + 45 COMP + 2 + 238 Ang1 Leu261-498; ~180 kDa and ~250 kDa were observed under non-reducing conditions; also called COMP-Ang1/FD; CO/CC-A1/FD
[1]
  concentration at which binding was saturated: > 125 nM
[2]
  percent of input protein bound: ~100%
[3]
  Kd: 20.5 nM
[4]
  Tie2 phosphorylation (ratio of phospho-Tie2 to Tie2, control buffer = 1): ~8.8 fold

B2: native Ang1 (recombinant FLAG-tagged human angiopoietin-1 with C-terminal Myc and His tags) (ligand)
chain: DYKDDDDKLRYNRIQHGQCAYTFILPEHDGNCRESTTDQYNTNALQRDAPHVEPDFSSQKLQHLEHVMENYTQWLQKLENYIVENMKSEMAQIQQNAVQNHTATMLEIGTSLLSQTAEQTRKLTDVETQVLNQTSRLEIQLLENSLSTYKLEKQLLQQTNEILKIHEKNSLLEHKILEMEGKHKEELDTLKEEKENLQGLVTRQTYIIQELEKQLNRATTNNSVLQKQQLELMDTVHNLVNLCTKEGVLLKGGKREEEKPFRDCADVYQAGFNKSGIYTIYINNMPEPKKVFCNMDVNGGGWTVIQHREDGSLDFQRGWKEYKMGFGNPSGEYWLGNEFIFAITSQRQYMLRIELMDWEGNRAYSQYDRFHIGNEKQNYRLYLKGHTGTAGKQSSLILHGADFSTKDADNDNCMCKCALMLTGGWWFDACGPSNLNGMFYTAGQNHGKLNGIKWHYFKGPSYSLRSTTMMIRPLDFDIQHSGGRSSLEGPRFEQKLISEEDLNMHTGHHHHHH
notes: Multimer of variable sizes under non-reducing conditions; Produced in COS-7 cells; also called nAng1
[1]
  concentration at which binding was saturated: > 125 nM
[2]
  percent of input protein bound: ~75%
[3]
  Kd: 7.5 nM
[4]
  Tie2 phosphorylation (ratio of phospho-Tie2 to Tie2, control buffer = 1): ~3.6 fold

B3: CMP/CC-Ang1/FD (coiled-coil domain of CMP - fibrinogen domain of Ang1) (ligand)
chain: YKDDDDKGILDEDPCECKSIVKFQTKVEELINTLQQKLEAVAKRIEALENKIIGSLVNLCTKEGVLLKGGKREEEKPFRDCADVYQAGFNKSGIYTIYINNMPEPKKVFCNMDVNGGGWTVIQHREDGSLDFQRGWKEYKMGFGNPSGEYWLGNEFIFAIYSQRQYMLRIELMDWEGNRAYSQYDRFHIGNEKQNYRLYLKGHTGTAGKQSSLILHGADFSTKDADNDNCMCKCALMLTGGWWFDACGPSNLNGMFYTAGQNHGKLNGIKWHYFKGPSYSLRSTTMMIRPLDF
notes: The end, 310, is worked out from bases 1-933 including the stop codon; ~140 kDa and ~180 kDa were observed under non-reducing conditions; also called CMP-Ang1/FD; C/CC-A1/FD
[1]
  concentration at which binding was saturated: ~30 nM
[2]
  percent of input protein bound: ~95%
[3]
  Kd: 67 nM
[4]
  Tie2 phosphorylation (ratio of phospho-Tie2 to Tie2, control buffer = 1): ~4 fold

B4: GCN4/CC-Ang1/FD (coiled-coil domain of GCN4 - fibrinogen domain of Ang1) (ligand)
chain: DYKDDDDKGILMKQLEDKVEELLSKNYHLENEVARLKKLVGEGSLVNLCTKEGVLLKGGKREEEKPFRDCADVYQAGFNKSGIYTIYINNMPEPKKVFCNMDVNGGGWTVIQHREDGSLDFQRGWKEYKMGFGNPSGEYWLGNEFIFAIYSQRQYMLRIELMDWEGNRAYSQYDRFHIGNEKQNYRLYLKGHTGYAGKQSSLILHGADFSTKDADNDNCMCKCALMLTGGWWFDACGPSNLNGMFYTAGQNHGKLNGIKWHYFKGPSYSLRSTTMMIRPLDF
notes: The end, 298, is worked out from bases 1-897 including the stop codon; ~80 kDa under non-reducing conditions; also called GCN4-Ang1/FD; G/CC-A1/FD
[1]
  concentration at which binding was saturated: ~30 nM
[2]
  percent of input protein bound: ~20%
[3]
  Kd: 158 nM

B5: Ang1/FD (truncated Ang1 that contains only the fibrinogen-like domain, amino acids 284-498) (ligand)
chain: RDCADVYQAGFNKSGIYTIYINNMPEPKKVFCNMDVNGGGWTVIQHREDGSLDFQRGWKEYKMGFGNPSGEYWLGNEFIFAIYSQRQYMLRIELMWEGNRAYSQYDRFHIGNEKQNYRLYLKGHTGYAGKQSSLILHGADFSTKDADNDNCMCKCALMLTGGWWFDACGPSNLNGMFYTAGQNHGKLNGIKWHYFKGPSYSLRSTTMMIRPLDF
notes: The range 284-498 is counted on Ang1, not on the entry; also called monomeric Ang1/FD; recombinant Ang1/FD
[5]
  binding result: no binding
